B1: anti-TIM-3 antibody clone G7 (antibody, V domains shown)
VH: EVQLVQSGAEVKKPGASVKVSCKASGYTFTSYYMHWVRQAPGQGLEWMGIINPSGGSTSYAQKFQGRVTMTRDTSTSTVYMELSSLRSEDTAVYYCARDQYSSGWYYYGMDVWGQGTTVTVSS
VL: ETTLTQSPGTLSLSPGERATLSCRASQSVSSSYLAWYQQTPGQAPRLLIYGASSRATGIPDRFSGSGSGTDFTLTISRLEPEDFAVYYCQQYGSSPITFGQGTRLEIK
B2: anti-TIM-3 antibody clone G9 (antibody, V domains shown)
VH: B1 VH with E1Q, V5Q, Q100L, S103Y, W105F
VL: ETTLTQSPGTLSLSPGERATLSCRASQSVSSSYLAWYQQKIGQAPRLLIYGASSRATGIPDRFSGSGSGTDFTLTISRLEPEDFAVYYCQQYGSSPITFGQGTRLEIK
B3: anti-TIM-3 antibody clone B10 (antibody, V domains shown)
VH: QVQLQESGPGLVKASETLSLTCTVSGGSIGSSDYYWGWIRQPPGKGLEWIGSIYYSGSTYYNPSLKSRVTMSVDTPNNQFSLKLSSVTAADTAVYYCARGEHRGEFDYWGQGTLVTVSS
VL: EIVLTQSPATLSFSPGERATLSCRASQSVGSYLAWYQQRPGQAPRPLIYDATNRATGIPTRFSGSGSGTDFTLTISSLEPEDFATYYCQHRRTFGRGTKLEIK
B4: anti-TIM-3 antibody clone G6 (antibody, V domains shown)
VH: QVQLQESGPGLVKPSGTLSLTCAVSGGSISSSNWWSWVRQPPGKGLEWIGEIYHSGSTNYNPSLKSRVTISVDKSKNQFSLKLSSVTAADTAVYYCARVVAVAGTVDYWGQGTLVTVSS
VL: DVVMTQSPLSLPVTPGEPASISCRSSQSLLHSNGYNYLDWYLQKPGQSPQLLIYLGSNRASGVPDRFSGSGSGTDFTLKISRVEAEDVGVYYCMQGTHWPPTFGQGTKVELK
B5: anti-TIM-3 antibody clone A3 (antibody, V domains shown)
VH: QVQLVQSGAEVKKPGASVKVSCKASGYTFTSYYMHWVRQAPGQGLEWMGIINPSGGSTSYAQKFQGRVTMTRDTSTSTVYMELSSLRSEDTAVYYCARSPGVVTALFDYWGQGTLVTVSS
VL: DIQMTQSPSFMSASVGDRVTITCRASQDIGSYLAWYQQKPGKAPKLLIYAASTLQSGVPSRFSGSGSGTDFTLTINSLQPEDFATYYCQQSYSSPPTFGPGTTLEIK
B6: anti-TIM-3 antibody clone A11 (antibody, V domains shown)
VH: QVQLQQWGAGLLKPSETLSLTCAVYGGSFSGYYWSWIRQPPGKGLEWIGEINHSGSTNYNPSLKSRVTISVDTSKNQFSLKLSSVTAADTAVYYCARGYVAGFDYWGQGTLVTVSS
VL: QSVVTQPPSVSAAPGQKVTISCSGSSSNIGNNYVSWYQQLPGTAPKLLIYGNNWRPSGIPDRFSGSKSGTSATLAISGLQTGDEADYYCETWDSSLSAGVFGGGTKLTVL

Changes are numbered by the printed parent chain.

For the first assay, the target named is T1, human TIM-3 coupled to human Fc (human, UniProt Q8TDQ0 22-200). The assay can be described thus: SPR.
Regarding B1, the Kd was found to be 620 pM. Same read-out and setting: in the case of B2 it was 630 pM.

In the case of B3, the Kd amounted to 260 pM. On the same count and under the same terms, under B4 stands 2520 pM. B5 came in with a Kd of 440 pM.

A further assay has as its target T1, human TIM-3 coupled to human Fc. The assay can be described thus: SPR. This is another data set of the same source.
B6 displayed a Kd of 1260 pM.

Values taken from patent US20170240633A1 (published 2017).
